These results are taken from paper PMC4749968, “Nanocaged enzymes with enhanced catalytic activity and increased stability against protease digestion” (Nature Communications, 2016).

In one data set the test system is T1, LDH.
T1 construct: gene LDHA
As to conditions: read-out: Free enzymes / Km; free enzyme; 1x TBS with 1 mM MgCl2, pH 7.5 (most assays; details in supplement).

A further data set concerns T2, MDH.
T2 construct: gene MDH2
Particulars: read-out: Free enzymes / Km; free enzyme; 1x TBS with 1 mM MgCl2, pH 7.5 (most assays; details in supplement).

Data set [1] has as its system O=c1ccc2nc3ccc(O[C@@H]4O[C@H](CO)[C@H](O)[C@H](O)[C@H]4O)cc3oc-2c1. Description: purified protein. Particulars: free enzyme; kcat not calibrated; conditions in supplement.
Substrate in data set [2]: CCn1c(=NN=c2sc3cc(S(=O)(=O)O)ccc3n2CC)sc2cc(S(=O)(=O)O)ccc21
Put plainly: Michaelis-Menten kinetics, plate reader absorbance. It counts as biochemical, Armoracia rusticana. As to conditions: free enzyme, 1x TBS with 1 mM MgCl2, pH 7.5 (most assays; details in supplement). From the text: Michaelis-Menten kinetics, plate reader absorbance on HRP

As for `NC(=O)C1=CN([C@@H]2O[C@H](COP(=O)(O)OP(=O)(O)OC[C@H]3O[C@@H](n4cnc5c(N)ncnc54)[C@H](O)[C@@H]3O)[C@@H](O)[C@H]2O)C=CC1` [NADH], the Km with LDH was determined as 7.2 ± 1.3 µM; with MDH, 180 ± 50 µM.

As usually defined, the kcat is the maximal rate divided by the concentration of active sites. Take β-Gal (Escherichia coli K-12): in data set [1], the Km turned out to be 58.7 ± 16.0 µM and the kcat was 8.5 ± 0.6 s⁻¹.

B1: HRP (Armoracia rusticana) (protein)
chain: QLTPTFYDNSCPNVSNIVRDTIVNELRSDPRIAASILRLHFHDCFVNGCDASILLDNTTSFRTEKDAFGNANSARGFPVIDRMKAAVESACPRTVSCADLLTIAAQQSVTLAGGPSWRVPLGRRDSLQAFLDLANANLPAPFFTLPQLKDSFRNVGLNRSSDLVALSGGHTFGKNQCRFIMDRLYNFSNTGLPDPTLNTTYLQTLRGLCPLNGNLSALVDFDLRTPTIFDNKYYVNLEEQKGLIQSDQELFSSPNATDTIPLVRSFANSTQTFFNAFVEAMDRMGNITPLTGTQGQIRLNCRVVNSNS
notes: 44 kDa
Turning to B1, in data set [2], the Km is given as 2,600±400 μM and the kcat worked out at 59 ± 5 s⁻¹.
